A word on the Ki: it is a dissociation constant, usually derived from enzyme kinetics or from competition with a known ligand. Lower therefore signals higher affinity.

Experimental findings from patent US20250312499A1, “KISSPEPTIN RECEPTOR (KISS1R) TARGETED THERAPEUTICS AND USES THEREOF” (priority 2024, published 2025) are described below.

B1: Compound 55 (peptide)
peptide: {DOTA-Ahx}-F[azaGly]L[X2]F-NH2
SMILES: Cc1ccc(CNCC(=O)N2CCC(NC(=O)[C@H](CC(C)C)NC(=O)NNC(=O)[C@H](Cc3ccccc3)NC(=O)CCCCCNC(=O)CN3CCN(CC(=O)O)CCN(CC(=O)O)CCN(CC(=O)O)CC3)(C(=O)N[C@@H](Cc3ccccc3)C(N)=O)CC2)cc1F
B2: Compound 30 (peptide)
peptide: {DOTA-Ahx}-[dW]NTF[azaGly]L[X2]W-NH2
SMILES: Cc1ccc(CNCC(=O)N2CCC(NC(=O)[C@H](CC(C)C)NC(=O)NNC(=O)[C@H](Cc3ccccc3)NC(=O)[C@@H](NC(=O)[C@H](CC(N)=O)NC(=O)[C@@H](Cc3c[nH]c4ccccc34)NC(=O)CCCCCNC(=O)CN3CCN(CC(=O)O)CCN(CC(=O)O)CCN(CC(=O)O)CC3)[C@@H](C)O)(C(=O)N[C@@H](Cc3c[nH]c4ccccc34)C(N)=O)CC2)cc1F
B3: Compound 381 (peptide)
peptide: Octanoyl-[dY]K(DOTA)NTF[azaGly]L[X2]W-NH2
SMILES: CCCCCCCC(=O)N[C@H](Cc1ccc(O)cc1)C(=O)N[C@@H](CCCCNC(=O)CN1CCN(CC(=O)O)CCN(CC(=O)O)CCN(CC(=O)O)CC1)C(=O)N[C@@H](CC(N)=O)C(=O)N[C@H](C(=O)N[C@@H](Cc1ccccc1)C(=O)NNC(=O)N[C@@H](CC(C)C)C(=O)NC1(C(=O)N[C@@H](Cc2c[nH]c3ccccc23)C(N)=O)CCN(C(=O)CNCc2ccc(C)c(F)c2)CC1)[C@@H](C)O
B4: Compound 32 (peptide)
peptide: {DOTA-Ahx}-[dY][dH][dW]NTF[azaGly]L[X2]W-NH2
SMILES: Cc1ccc(CNCC(=O)N2CCC(NC(=O)[C@H](CC(C)C)NC(=O)NNC(=O)[C@H](Cc3ccccc3)NC(=O)[C@@H](NC(=O)[C@H](CC(N)=O)NC(=O)[C@@H](Cc3c[nH]c4ccccc34)NC(=O)[C@@H](Cc3c[nH]cn3)NC(=O)[C@@H](Cc3ccc(O)cc3)NC(=O)CCCCCNC(=O)CN3CCN(CC(=O)O)CCN(CC(=O)O)CCN(CC(=O)O)CC3)[C@@H](C)O)(C(=O)N[C@@H](Cc3c[nH]c4ccccc34)C(N)=O)CC2)cc1F
B5: Compound 36 (peptide)
peptide: {DOTA-Ahx}-[dY]ENT[Phe(3-F)][azaGly]L[X2]W-NH2
SMILES: Cc1ccc(CNCC(=O)N2CCC(NC(=O)[C@H](CC(C)C)NC(=O)NNC(=O)[C@H](Cc3cccc(F)c3)NC(=O)[C@@H](NC(=O)[C@H](CC(N)=O)NC(=O)[C@H](CCC(=O)O)NC(=O)[C@@H](Cc3ccc(O)cc3)NC(=O)CCCCCNC(=O)CN3CCN(CC(=O)O)CCN(CC(=O)O)CCN(CC(=O)O)CC3)[C@@H](C)O)(C(=O)N[C@@H](Cc3c[nH]c4ccccc34)C(N)=O)CC2)cc1F
B6: Compound 383 (peptide)
peptide: {DOTA-Ahx}-[dY][dW]NTF[azaGly]L[X2][dW]-NH2
SMILES: Cc1ccc(CNCC(=O)N2CCC(NC(=O)[C@H](CC(C)C)NC(=O)NNC(=O)[C@H](Cc3ccccc3)NC(=O)[C@@H](NC(=O)[C@H](CC(N)=O)NC(=O)[C@@H](Cc3c[nH]c4ccccc34)NC(=O)[C@@H](Cc3ccc(O)cc3)NC(=O)CCCCCNC(=O)CN3CCN(CC(=O)O)CCN(CC(=O)O)CCN(CC(=O)O)CC3)[C@@H](C)O)(C(=O)N[C@H](Cc3c[nH]c4ccccc34)C(N)=O)CC2)cc1F
B7: Compound 35 (peptide)
peptide: {DOTA-Ahx}-[dY]WNT[Phe(3-F)][azaGly]L[X2]W-NH2
SMILES: Cc1ccc(CNCC(=O)N2CCC(NC(=O)[C@H](CC(C)C)NC(=O)NNC(=O)[C@H](Cc3cccc(F)c3)NC(=O)[C@@H](NC(=O)[C@H](CC(N)=O)NC(=O)[C@H](Cc3c[nH]c4ccccc34)NC(=O)[C@@H](Cc3ccc(O)cc3)NC(=O)CCCCCNC(=O)CN3CCN(CC(=O)O)CCN(CC(=O)O)CCN(CC(=O)O)CC3)[C@@H](C)O)(C(=O)N[C@@H](Cc3c[nH]c4ccccc34)C(N)=O)CC2)cc1F
B8: Compound 27 (peptide)
peptide: {DOTA-Ahx}-[dY]KNT[Phe(3-F)][azaGly]L[X2]W-NH2
SMILES: Cc1ccc(CNCC(=O)N2CCC(NC(=O)[C@H](CC(C)C)NC(=O)NNC(=O)[C@H](Cc3cccc(F)c3)NC(=O)[C@@H](NC(=O)[C@H](CC(N)=O)NC(=O)[C@H](CCCCN)NC(=O)[C@@H](Cc3ccc(O)cc3)NC(=O)CCCCCNC(=O)CN3CCN(CC(=O)O)CCN(CC(=O)O)CCN(CC(=O)O)CC3)[C@@H](C)O)(C(=O)N[C@@H](Cc3c[nH]c4ccccc34)C(N)=O)CC2)cc1F
B9: Compound 23 (peptide)
peptide: {DOTA}-[dY][d4Pal]NTF[azaGly]L[X2]W-NH2
SMILES: Cc1ccc(CNCC(=O)N2CCC(NC(=O)[C@H](CC(C)C)NC(=O)NNC(=O)[C@H](Cc3ccccc3)NC(=O)[C@@H](NC(=O)[C@H](CC(N)=O)NC(=O)[C@@H](Cc3ccncc3)NC(=O)[C@@H](Cc3ccc(O)cc3)NC(=O)CN3CCN(CC(=O)O)CCN(CC(=O)O)CCN(CC(=O)O)CC3)[C@@H](C)O)(C(=O)N[C@@H](Cc3c[nH]c4ccccc34)C(N)=O)CC2)cc1F
B10: Compound 22 (peptide)
peptide: {DOTA-Ahx}-FF[azaGly]L[X2]W-NH2
modifications: not fully specified; numbers in words are those of the source; also: places azaglycine at site 3
B11: Compound 20 (peptide)
peptide: {DOTA-Ahx}-[dY]PNTF[azaGly]L[X2]W-NH2
SMILES: Cc1ccc(CNCC(=O)N2CCC(NC(=O)[C@H](CC(C)C)NC(=O)NNC(=O)[C@H](Cc3ccccc3)NC(=O)[C@@H](NC(=O)[C@H](CC(N)=O)NC(=O)[C@@H]3CCCN3C(=O)[C@@H](Cc3ccc(O)cc3)NC(=O)CCCCCNC(=O)CN3CCN(CC(=O)O)CCN(CC(=O)O)CCN(CC(=O)O)CC3)[C@@H](C)O)(C(=O)N[C@@H](Cc3c[nH]c4ccccc34)C(N)=O)CC2)cc1F
B12: Compound 26 (peptide)
peptide: {DOTA-Ahx}-NTF[azaGly]L[X2]W-NH2
SMILES: Cc1ccc(CNCC(=O)N2CCC(NC(=O)[C@H](CC(C)C)NC(=O)NNC(=O)[C@H](Cc3ccccc3)NC(=O)[C@@H](NC(=O)[C@H](CC(N)=O)NC(=O)CCCCCNC(=O)CN3CCN(CC(=O)O)CCN(CC(=O)O)CCN(CC(=O)O)CC3)[C@@H](C)O)(C(=O)N[C@@H](Cc3c[nH]c4ccccc34)C(N)=O)CC2)cc1F
B13: Compound 380 (peptide)
peptide: Ac-[dY]K(DOTA)NTF[azaGly]L[X2]W-NH2
SMILES: CC(=O)N[C@H](Cc1ccc(O)cc1)C(=O)N[C@@H](CCCCNC(=O)CN1CCN(CC(=O)O)CCN(CC(=O)O)CCN(CC(=O)O)CC1)C(=O)N[C@@H](CC(N)=O)C(=O)N[C@H](C(=O)N[C@@H](Cc1ccccc1)C(=O)NNC(=O)N[C@@H](CC(C)C)C(=O)NC1(C(=O)N[C@@H](Cc2c[nH]c3ccccc23)C(N)=O)CCN(C(=O)CNCc2ccc(C)c(F)c2)CC1)[C@@H](C)O

Numbered stars: 1 amine (or outer) side, 2 acyl side, 3 side chain; on linkers, the order of the positions; unused ones are H or OH. Square brackets hold non-standard residues; d marks the D form. Ends that are not written are not given here. * marks the point of attachment. X2 = 4‑amino‑1‑((3-fluoro-4-methylbenzyl)glycyl)piperidine‑4‑carboxylic acid, Cc1ccc(CN(CC(=O)N2CCC(N[*:1])(C(=O)[*:2])CC2)[*:3])cc1F; X6 = 3‑(2-(2-(3-(p-tolyl)propanamido)ethoxy)ethoxy)propanoyl, Cc1ccc(CCC(=O)NCCOCCOCCC(=O)*)cc1; DOTA = O=C(O)CN1CCN(CC(=O)O)CCN(CC(=O)*)CCN(CC(=O)O)CC1; Phe(3-F) = N[C@@H](Cc1cccc(F)c1)C(=O)O; d4Pal = N[C@H](Cc1ccncc1)C(=O)O; Cha = N[C@@H](CC1CCCCC1)C(=O)O; NH‑glycol = not defined here; Octanoyl = CCCCCCCC(=O)*; ABA = not defined here; APM = not defined here; Ahx = NCCCCCC(=O)O; azaGly = NNC(=O)O

This test deals with human kisspeptin receptor (KISS1R) (human), Q969F8. Description: radioligand competition, hKISS1R membranes; legend: A is <10 nM. In general terms: Displacement assays read how much labelled ligand stays bound in the presence of the test substance.
Chain of human kisspeptin receptor (KISS1R) (human), Q969F8 (Q969F8 whole entry): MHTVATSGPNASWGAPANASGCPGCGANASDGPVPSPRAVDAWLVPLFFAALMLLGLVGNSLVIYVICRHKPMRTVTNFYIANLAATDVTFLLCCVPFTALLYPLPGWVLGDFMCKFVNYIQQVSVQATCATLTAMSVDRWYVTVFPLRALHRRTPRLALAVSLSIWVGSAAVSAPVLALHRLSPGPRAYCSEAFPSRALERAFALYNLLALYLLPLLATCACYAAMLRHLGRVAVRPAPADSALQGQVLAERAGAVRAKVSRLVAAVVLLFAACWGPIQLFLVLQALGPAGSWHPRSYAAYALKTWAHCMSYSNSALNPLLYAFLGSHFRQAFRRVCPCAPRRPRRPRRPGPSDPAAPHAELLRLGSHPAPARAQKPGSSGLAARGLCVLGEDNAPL
As to B1, the Ki is less than 10 nM.

On to B2, for which the Ki is less than 10 nM.

X6-[dY]K(DOTA)NT[Cha][azaGly]L[4‑amino‑1‑carbamimidoylpiperidine‑4‑carboxylic acid(Sarcosine)]W-NH2 [Compound 387] yielded a Ki of less than 10 nM.

B3 yielded a Ki of less than 10 nM.

Consider {DOTA-4‑(aminomethyl)cyclohexanecarboxylic acid}-F[azaGly]L[X2]W-NH2 [Compound 25], for which the inhibition constant (Ki) is less than 10 nM.

As for {DOTA-NH‑PEG2‑propanoyl}-[dY][dW]NTF[azaGly]L[X2]W-NH2 [Compound 382], the Ki was less than 10 nM.

As for {DOTA-NH‑glycol}-[dY][dW]NTF[azaGly]L[X2]W-NH2 (reading uncertain) [Compound 57], the Ki is less than 10 nM.

The molecule B4 gave a Ki of less than 10 nM.

In turn, {DOTA-ABA}-F[azaGly]L[X2]W-NH2 (reading uncertain) [Compound 50] displayed a Ki of less than 10 nM.

{DOTA}-KF[azaGly]L[X2]W-NH2 [Compound 37]: the inhibition constant Ki is less than 10 nM.

In turn, B5 came in with a Ki of less than 10 nM.

X6-[dY][dK](DOTA)NT[Cha][azaGly]L[4‑amino‑1‑carbamimidoylpiperidine‑4‑carboxylic acid(Sarcosine)]W-NH2 [Compound 388] displayed an inhibition constant Ki of less than 10 nM.

The molecule B6 showed an inhibition constant Ki of less than 10 nM.

{DOTA-APM}-[dY][dH][dW]NTF[azaGly]L[X2]W-NH2 (reading uncertain) [Compound 33] came in with an inhibition constant Ki of less than 10 nM.

As to {DOTA-APM}-[dY][dW]NT[Phe(3-F)][azaGly]L[X2]W-NH2 (reading uncertain) [Compound 34], the Ki is less than 10 nM.

B7: the Ki is less than 10 nM.

In turn, B8 had an inhibition constant (Ki) of less than 10 nM.

For the molecule B9, the Ki was less than 10 nM.

B10: the Ki was less than 10 nM.

Turning to {DOTA-APM}-F[azaGly]L[X2]W-NH2 (reading uncertain) [Compound 28], the inhibitory constant (Ki) is less than 10 nM.

As for B11, the Ki was less than 10 nM.

On to [dY]K(DOTA)NTF[azaGly]L[4‑amino‑1‑carbamimidoylpiperidine‑4‑carboxylic acid(Sarcosine)]W-NH2 (not fully specified (N-terminus)) [Compound 384], for which the Ki was less than 10 nM.

In turn, {DOTA-2‑(4-aminopiperidin-1-yl)acetic acid}-[dY]ENT[Phe(3-F)][azaGly]L[X2]W-NH2 [Compound 24] registered a Ki of less than 10 nM.

Take B12: the inhibition constant Ki was less than 10 nM.

B13 showed an inhibition constant Ki of less than 10 nM.
